Molecular target: Gαi1 R178M/A326S (human)
Assay: cell-based or functional assay

Chain of Gαi1 R178M/A326S (human) (B2RSH2 2-354 R178M/A326S): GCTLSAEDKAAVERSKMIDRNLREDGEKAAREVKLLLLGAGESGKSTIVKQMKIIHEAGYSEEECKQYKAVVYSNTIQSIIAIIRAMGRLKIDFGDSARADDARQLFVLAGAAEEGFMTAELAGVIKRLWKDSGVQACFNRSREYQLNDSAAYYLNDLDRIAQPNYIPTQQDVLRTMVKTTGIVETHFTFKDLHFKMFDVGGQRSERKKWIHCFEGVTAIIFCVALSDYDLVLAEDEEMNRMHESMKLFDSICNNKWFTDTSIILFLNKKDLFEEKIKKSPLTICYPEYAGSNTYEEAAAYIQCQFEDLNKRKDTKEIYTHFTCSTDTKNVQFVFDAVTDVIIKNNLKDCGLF

B1: RGS21 (wild type RGS domain) (protein)
chain: NMDTLLANQAGLDAFRIFLKSEFSEENVEFWLACEDFKKTKNADKIASKAKMIYSEFIEADAPKEINIDFGTRDLISKNIAEPTLKCFDEAQKLIYCLMAKDSFPRFLKSEIYKKLV
- stimulation of GTPase activity: 8.8 fold

From patent publication US20110212476A1
